Laboratory results taken from the nanobody polyreactivity screen of Harvey et al. (2022).

Assay: yeast display, Sf9 membrane polyspecificity reagent, FACS + sequencing; frameworks hold sequencing errors
Method in brief: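 Galactose-induced (36–48 hours) yeast carrying a synthetic nanobody display library were exposed to 10% biotinylated, detergent-solubilized Sf9 membrane reagent at 4 °C for 1 hour. FACS followed streptavidin microbead enrichment, using low and high (top ~1%) gates for expression (anti-HA) and reagent binding (streptavidin). Colony PCR, MiSeq 2 × 250 sequencing and CDR-length filtering followed. Labels for polyreactivity reflect the gate of origin.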

## QVQLVESGGGLVQAGGSLRLSCAASGNTFGPYDMGWYRQSPGKERELVAGITSGGSTYYADSVKGRFTISRDNAKNTVYLQMNSLKPEDTAVYYCAADDYLWVYWYDYWGQGTQVTVSS
  polyreactivity (PSR sort gate): high polyreactivity

## QVQLVESRGGLVQAGGSLRLSCAASGSIFDVNAMGWYRQAPGKERELVAAISQRGTRTYYADSVKGRFTISRDNAKNTVYLQMNSLKPEDTAVYYCNRGGWREYDSWGQGTQVTVSS
  polyreactivity (PSR sort gate): high polyreactivity

## QVQLVESGGGLVQAGGSLRLSCAASGSTFYRNTMGWYRQAPGKERELVAAIRRSGSSTYYADSVKGRFTISRDNAKNTVYLQMNSLKPDDTAVYYCAKEGLSYRYYYCGQGTQVTVSS
  polyreactivity (PSR sort gate): high polyreactivity

## QVQLVESGGGLVQAGGSLRLICAASGFIFESNAMGWYRQAPGKERELVAAITSAGRTYYADSVKGRFTISRDNAKNTVYLQMNSLKPEDNAVYYCNATRSRYRYDYWGQGTQVTVSS
  polyreactivity (PSR sort gate): high polyreactivity

## QVQLVESGGGLVQAGGSLRLSSAASGSIFRGYAMGWYRQAPEKERELVAAISRRGGSTYYADSVKGRFTISRDNAKNTVYLQMNSLKPEDTAVYYCAKDGTGAGTYDYWGLGTQVTVSS
  polyreactivity (PSR sort gate): low polyreactivity

## QVQLVESGGGLVQAGGSLRLSCAASGRTLYRYAMGWYRQAPGKERELVATITTGGSTNYADSVKGRFTISRDNAKNTVYLQMNSLKPEDTAVYYCNAGILSRWVRKYYYWGQGTQVTVSS
  polyreactivity (PSR sort gate): low polyreactivity

## QVQLVESGGGLVQAGGSLRLSCAASGINFPGYAMGWYRQAPGKERELVAVIRKSGTSTYYADSVKGRFTISRDNAKNTVYLQMNSLKPEDTAVYYCAAGGPSTLDDYWGQGTQVTVSS
  polyreactivity (PSR sort gate): low polyreactivity

## QVQLVESGGGLVQAGGSLRLSCAASGSTFKWYAMGWYRQAPGKERELVAAISQSGSRTYYADSVKGRFTISRDNAKNTVYLQMNSLKPEDTAVYYCNARRYIYNYDYWGQGTQVTVSS
  polyreactivity (PSR sort gate): high polyreactivity

## QVQLVESGGGLVQAGGSLRLSCAASGRTLPYNAMGWYRQAPGKERELVAAISKRGSSTYYADSVKGRFTISRDNAKNTVYLQMNSLKPEDTAVYYCAKGGSFYYWGQGTQVTVSS
  polyreactivity (PSR sort gate): high polyreactivity

## QVQLVESGGGLVQAGGSLRLSCAASGFTIWRYAMGWYRQEPGKERELVAAISRGGSTNYADSVKGRFTISRDNAKNTVYLQMNSLKPEDTAVYYCAASVLYRRLKKFYYWGQGTQVTVSS
  polyreactivity (PSR sort gate): high polyreactivity

## QVQLVESGGGLVQAGGSLRLSCAASGSIFVYNAMGWYRQAPGKERELVAAISTSGGRTYYADSVKGRFTISRDNAKNTVYLQMNSLKPEDTAVYYCNALGYWRRVVDGFDYWGQGTQVTVSS
  polyreactivity (PSR sort gate): high polyreactivity

## QVQLVESGGGLVQAGGSLRLSCAASGRIFKWNAMGWYRQAPGKERELVAAITYRDDTTYYADSVKGRFTISRDNAKNTVYLQMNSLKPEDTAVYYCNAAWRPCRPFRGFTEGEYDYWGQGTQVTVSS
  polyreactivity (PSR sort gate): low polyreactivity

## QVQLVESGGGLVQAGGSLRLICAASGYIFVRNAMGWYRQAPGKEREFVATISRRGGTTYYADSVKGRFTISRDNAKNTVYLQMNSLKPEDTAVYYCAARNWPSRGYKYWGQGTQVTVSS
  polyreactivity (PSR sort gate): high polyreactivity

## QVQLVESGGGLVQAGGSLRLSCAASGLYAMGWYRPAPGKERELVADINSSGGSITNYADSVKGRFTISRDNAKNTVYLQMISLKPEDTAVYYCAKRGPYFAYDYWGQGTQVTVSS
  polyreactivity (PSR sort gate): low polyreactivity

## QVQLVESGGGLVQAGGSLRLSCAASGFTFVPYAMGWYRLAPGKEREFVATISWSAGRTYYADSVKGRFTISRDNAKNTVYLQMNSLKPEDTAVYYCNTASYRGYDYWGQGTQVTVSS
  polyreactivity (PSR sort gate): high polyreactivity

## QVQLVESGGGLFQAGGSLRLICAASGLIINGNAMGWYRQAPGKERELVADITGSSVRTYYADSVKGRFTISRDNAKNTVYLQMNSLKPEDTAVYYCAKDPDKVDYVDMDYWGQGTQVTVSS
  polyreactivity (PSR sort gate): low polyreactivity

## QVQLVESGGGLVQAGGSLRLSCAASGSTFRYYAMGWYRQAPGKERELVAGISSSGGSTYYADSVKGRFTISRDNAKNTVYLQMNSLNPEDTAVYYCIAARGTSRSWAVFADYDYWGQGTQVTVSS
  polyreactivity (PSR sort gate): high polyreactivity

## QVQLVESGGGLVQAGGSLRLSCAASGSIFGINVMGWYRQAPGKERELVAAITSGTSTYYADSVKGRFTISRDNANNTVYLQMNSLKPEDTAVYYCAALWSSRYVVHPQWYDYWGQGTQVTVSS
  polyreactivity (PSR sort gate): low polyreactivity

## QVQLVESGGGLVHAGGSLLLSCSASGRTFDSNAMGWSRQAPGKERELVAAISGSGDTTYYADSVKGRFTISRDNAKNTVYLQMNSLKPEDTAVYYCADDHDSSGSGYEYWGQGTEVTVSS
  polyreactivity (PSR sort gate): low polyreactivity

## QVQLVESGGGLVQAGGSLRLSCAASGFTFPGYAMGWYRQAPGKERELVAAISYSSGSTYYADSVKGRFTISRDNAKNTVYLQMNSLKPEDTAVYYCAAYFSPVGFQYDYWGQGTQVTVSS
  polyreactivity (PSR sort gate): high polyreactivity

## QVQLVESGGGLVQAGGSLRLSCAASGSIFRYYVMGWYRQAPGKERELVAAITKSAGSTYYADSVKGRFTISRDNAKNTVYLQMNSLKPEDTAVYYCAARRVSRGNSKFDYYWGQGTQVTVSS
  polyreactivity (PSR sort gate): high polyreactivity
